Data: the supplement of paper PMC10724198
± gives the standard deviation of the averaged measurements.

test system: Saccharomyces cerevisiae; experiment: protein stability index of tFT-peptide fusion (C-terminal peptide) (PSI (0-1 scale)); higher = more stable (slower turnover); settings: genetic background: wild type; temperature: 30 C
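Further: PSI is a weighted mean of sequencing reads over stability bins, variants kept only with over 10 reads, mCherry proximal and sfGFP distal, peptide attached via GGGS linker.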

| Sequence | protein stability index |
| --- | --- |
| RVLLLTGAFELV | 0.585 ± 0.028 |
| RVLWGTESFIDL | 0.7383 ± 0.0048 |
| RVMGDAAGCGGV | 0.707 ± 0.062 |
| RVRRAGSGWCGK | 0.729 ± 0.0073 |
| RVSLELEIIPPS | 0.706 ± 0.05 |
| RVSLGHGRAFWP | 0.711 ± 0.083 |
| RVSPGGLCALSV | 0.701 ± 0.051 |
| RVSVGGSVRLFG | 0.711 ± 0.04 |
| RVSWRLSYLCPV | 0.694 ± 0.14 |
| RVTLWDGSRSRI | 0.711 ± 0.017 |
| RVTNLQSRHTLH | 0.692 ± 0.023 |
| RVVEFGFGGCHW | 0.758 ± 0.061 |
| RVVEPKWDWRRG | 0.68 ± 0.032 |
| RVVGGWGEAWRE | 0.744 ± 0.0091 |
| RVVPTKTIAGSA | 0.6502 ± 0.0014 |
| RVVWVWLMSALF | 0.54 ± 0.034 |
| RVWERGRGGDGC | 0.679 ± 0.017 |
| RVWIWHPPTVRD | 0.625 ± 0.016 |
| RWATLSREFYQI | 0.526 ± 0.023 |
| RWFILCRSLPTG | 0.613 ± 0.071 |
| RWGGGGSVSFWW | 0.712 ± 0.053 |
| RWGGRTASVPCG | 0.754 ± 0.015 |
| RWGGSSPGRSFA | 0.766 ± 0.0091 |

| Sequence | protein stability index |
| --- | --- |
| RWRFSARSRLSR | 0.642 ± 0.013 |
| RWSVSLAVTVLL | 0.503 ± 0.011 |
| RYAEVGSLVSFL | 0.714 ± 0.0087 |
| RYEQRKNRRQKL | 0.799 ± 0.017 |
| RYGDGIELVIGS | 0.657 ± 0.011 |
| RYHQNTKKTSDI | 0.7119 ± 0.0016 |
| RYLLCSSVESAV | 0.639 ± 0.028 |
| RYLLPYQRRLFL | 0.745 ± 0.26 |
| RYNRVVCTEFHL | 0.668 ± 0.01 |
| RYRSQNNKKLEE | 0.658 ± 0.024 |
| SADILGLPRYLT | 0.656 ± 0.023 |
| SAFLPPLSPFSP | 0.753 ± 0.037 |
| SAFPSRVIGGGV | 0.661 ± 0.01 |
| SAGDLFVFEYLG | 0.6759 ± 0.0024 |
| SALRWPRPVLRV | 0.619 ± 0.017 |
| SAPCSFCPPPPG | 0.667 ± 0.026 |
| SAPLASRLCLFA | 0.644 ± 0.0065 |
| SAPSPPPPLAPP | 0.679 ± 0.041 |
| SAQSAGRQRLQK | 0.695 ± 0.014 |
| SARDQGISCAEC | 0.674 ± 0.04 |
| SASPEGTQRSPW | 0.761 ± 0.14 |
| SASPPLAERRGQ | 0.655 ± 0.043 |
| SASPVAGWLGGP | 0.677 ± 0.044 |

| Sequence | protein stability index |
| --- | --- |
| SATRLGLGLCWV | 0.6383 ± 0.0039 |
| SAVRHPRPGRPG | 0.6938 ± 0.0053 |
| SCCTITVPERPR | 0.653 ± 0.045 |
| SCIAVRDPWGLV | 0.683 ± 0.018 |
| SCLFGIFRWWVG | 0.568 ± 0.025 |
| SCLFRVFMFHFS | 0.553 ± 0.04 |
| SCLMSFAFFASL | 0.619 ± 0.016 |
| SCLRCSCLTEVL | 0.614 ± 0.021 |
| SCPHPAPPPPPP | 0.677 ± 0.023 |
| SCPPSFIPVLSP | 0.667 ± 0.035 |
| SCPSRLFLSFRG | 0.683 ± 0.034 |
| SCRGKTRPASGR | 0.64 ± 0.027 |
| SCSLPCPRLPSD | 0.719 ± 0.15 |
| SCSVGRRIGLGQ | 0.688 ± 0.061 |
| SCVFPSSCFVLI | 0.607 ± 0.019 |
| SCVGCLYMYWSL | 0.6102 ± 0.0049 |
| SCVLSYVASYAQ | 0.66 ± 0.018 |
| SCVSCACPVYWR | 0.662 ± 0.065 |
| SDKKGQKLKESQ | 0.693 ± 0.044 |
| SDKNNRFGRVRV | 0.674 ± 0.072 |
| SDLDFSRLHGSA | 0.698 ± 0.056 |
| SDMTHRSCTLLC | 0.633 ± 0.028 |
| SDVAGRCFFVVI | 0.589 ± 0.033 |

| Sequence | protein stability index |
| --- | --- |
| SDVLSFYGGVEC | 0.742 ± 0.026 |
| SEALRGVQFLSC | 0.684 ± 0.054 |
| SECFARSSSPRA | 0.7129 ± 0.0041 |
| SEFDSVSRIVYY | 0.705 ± 0.048 |
| SEGSLIPGSHIA | 0.733 ± 0.066 |
| SERKAKAEVAEA | 0.692 ± 0.064 |
| SFARMTAIPGLR | 0.661 ± 0.029 |
| SFFCSKCPLLCP | 0.533 ± 0.016 |
| SFFLALSIRLPN | 0.609 ± 0.0042 |
| SFFPPFHLLFSY | 0.532 ± 0.025 |
| SFFTLDRHPSYD | 0.715 ± 0.023 |
| SFGLGGSFFWVG | 0.7 ± 0.035 |
| SFGLSAGGDDRW | 0.74 ± 0.016 |
| SFGTLPLNSTAS | 0.644 ± 0.029 |
| SFGVDPDNCVGF | 0.607 ± 0.061 |
| SFNDVPPPEGIK | 0.67 ± 0.038 |
| SFPAPPSPPPLP | 0.702 ± 0.081 |
| SFRCLGFTSSRV | 0.681 ± 0.05 |
| SFRFCSNRFTRL | 0.699 ± 0.056 |
| SFRLLCPPPPLP | 0.6805 ± 0.0046 |
| SFRPPPPSSFPA | 0.745 ± 0.019 |
| SFSFLLSLSFLP | 0.529 ± 0.017 |
| SFSLAGFVCCVI | 0.6002 ± 0.0045 |

| Sequence | protein stability index |
| --- | --- |
| SFSSHRSPPPPL | 0.698 ± 0.13 |
| SFSSPPPTLVPP | 0.693 ± 0.038 |
| SFTSSFPGSSPS | 0.703 ± 0.058 |
| SFVLFAGPVFFW | 0.655 ± 0.025 |
| SFVSRSRLAEVD | 0.682 ± 0.073 |
| SFYFSAFYPSIV | 0.667 ± 0.013 |
| SFYIMSIQRKAK | 0.681 ± 0.052 |
| SGASFLKVGLSV | 0.6812 ± 0.0032 |
| SGASPSPPRTLS | 0.7493 ± 0.0017 |
| SGAVGSTNYGTR | 0.743 ± 0.018 |
| SGAVVIPCTFER | 0.669 ± 0.025 |
| SGGCGWGAGVRV | 0.778 ± 0.02 |
| SGGGSSSGKGIR | 0.715 ± 0.091 |
| SGGRCVGVGGVV | 0.658 ± 0.028 |
| SGGRPVQSWCAW | 0.779 ± 0.29 |
| SGGSGGSCMRYV | 0.691 ± 0.025 |
| SGLERGCSRCWH | 0.687 ± 0.0088 |
| SGLSFPPLYSLL | 0.715 ± 0.092 |
| SGLVCDGSSGGV | 0.635 ± 0.0083 |
| SGRPEGERAPEQ | 0.728 ± 0.06 |
| SGRVGRGAADWR | 0.681 ± 0.029 |
| SGRVMRAFSCGV | 0.6228 ± 0.0036 |
| SGSFAIYCSVSF | 0.611 ± 0.045 |

| Sequence | protein stability index |
| --- | --- |
| SGSGCSDRRPSR | 0.699 ± 0.02 |
| SGSSIAVLPTPC | 0.747 ± 0.11 |
| SGTFACCLGVCL | 0.6806 ± 0.0062 |
| SGVILWSAWRDG | 0.7029 ± 0.0014 |
| SGVLSLVDVWTG | 0.747 ± 0.1 |
| SGVRAAGEGDSE | 0.735 ± 0.033 |
| SGVRGRGSFWSV | 0.664 ± 0.04 |
| SHHSVNWKPQGL | 0.668 ± 0.025 |
| SHIAIEKLHSKN | 0.709 ± 0.056 |
| SHPTLCSFSPPA | 0.686 ± 0.035 |
| SHRRSMTNNKAK | 0.705 ± 0.01 |
| SIFVNICRRMKC | 0.616 ± 0.014 |
| SIIIRVTQSGSG | 0.6414 ± 0.0056 |
| SIIRDKERNNYK | 0.654 ± 0.015 |
| SIISRVLDAMAK | 0.724 ± 0.21 |
| SILQINRDNVMR | 0.742 ± 0.02 |
| SILWRCEEEIRR | 0.736 ± 0.029 |
| SINPRVYFVDCQ | 0.689 ± 0.034 |
| SIPSPLVPPLTR | 0.72 ± 0.04 |
| SIPVHGPCNRVV | 0.671 ± 0.025 |
| SIRTKVVRNVVS | 0.625 ± 0.087 |
| SKKNKNIQKHLY | 0.728 ± 0.011 |
| SKKSKTQSNKNQ | 0.683 ± 0.02 |

| Sequence | protein stability index |
| --- | --- |
| SKPTQQNRRPDG | 0.596 ± 0.028 |
| SKQNNIEMKKYK | 0.741 ± 0.036 |
| SKTQRAQSGNSA | 0.699 ± 0.054 |
| SLAGLLPCRLTP | 0.621 ± 0.023 |
| SLAGWPPPSIST | 0.686 ± 0.013 |
| SLAPLPLIVLFL | 0.487 ± 0.023 |
| SLCCPLHQTRFR | 0.684 ± 0.046 |
| SLDLALLSPFFG | 0.679 ± 0.029 |
| SLENRFGGFYVG | 0.749 ± 0.066 |
| SLEWGGGRRWPI | 0.719 ± 0.023 |
| SLFPPPLLLSAS | 0.574 ± 0.0095 |
| SLFSFLPRLYSH | 0.627 ± 0.023 |
| SLFSVLSPPYPS | 0.653 ± 0.032 |
| SLGAHHAAFRVV | 0.63 ± 0.044 |
| SLGGCVMCGTTL | 0.708 ± 0.029 |
| SLGGLVSGPGLV | 0.687 ± 0.032 |
| SLGGRVAGGWRD | 0.645 ± 0.1 |
| SLGLALSLRSSV | 0.6361 ± 0.0054 |
| SLGLHADLLSRT | 0.672 ± 0.064 |
| SLGNTRRTKKSI | 0.636 ± 0.054 |
| SLGRYVDCLLGC | 0.6463 ± 0.0044 |
| SLGVVSHGASRP | 0.693 ± 0.027 |
